“Also recorded” adds a separate entry of the source. Where no end group is shown, it is not given here.
T1: DNA binding domain of recombinant rat androgen receptor (AR) / calreticulin (p60) (Homo sapiens, UniProt P27797)
T1 construct: endogenous in cells
T1 sequence (P27797 18-417): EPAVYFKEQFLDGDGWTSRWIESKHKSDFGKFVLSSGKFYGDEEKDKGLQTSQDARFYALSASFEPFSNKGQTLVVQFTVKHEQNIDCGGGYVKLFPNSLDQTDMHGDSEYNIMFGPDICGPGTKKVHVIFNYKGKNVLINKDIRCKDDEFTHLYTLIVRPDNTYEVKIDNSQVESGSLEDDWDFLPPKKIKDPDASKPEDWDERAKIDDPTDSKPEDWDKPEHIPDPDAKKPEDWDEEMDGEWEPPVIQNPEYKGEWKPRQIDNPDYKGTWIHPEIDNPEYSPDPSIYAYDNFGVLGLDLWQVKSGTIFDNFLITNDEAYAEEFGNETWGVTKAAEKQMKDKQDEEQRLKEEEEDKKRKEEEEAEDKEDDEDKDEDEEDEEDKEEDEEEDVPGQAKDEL

T2: calreticulin as used in the gel mobility shift assays of Examples 7 and 15 (Homo sapiens (Human), UniProt P27797 18-417)
T2 construct: Could be m1 or m2
T2 sequence: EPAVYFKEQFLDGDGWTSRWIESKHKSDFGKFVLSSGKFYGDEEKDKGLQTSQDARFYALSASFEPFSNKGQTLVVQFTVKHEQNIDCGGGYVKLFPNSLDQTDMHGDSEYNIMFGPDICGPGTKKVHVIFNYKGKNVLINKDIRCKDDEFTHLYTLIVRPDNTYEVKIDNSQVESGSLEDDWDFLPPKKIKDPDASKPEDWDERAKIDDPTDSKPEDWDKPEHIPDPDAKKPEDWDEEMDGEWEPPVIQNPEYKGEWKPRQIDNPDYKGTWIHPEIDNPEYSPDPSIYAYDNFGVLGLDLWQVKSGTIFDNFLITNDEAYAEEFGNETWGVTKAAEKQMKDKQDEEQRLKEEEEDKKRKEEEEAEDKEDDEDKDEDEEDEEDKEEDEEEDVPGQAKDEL


How the values were obtained:
[1] = target: T1, DNA binding domain of recombinant rat androgen receptor (AR) / calreticulin (p60); test: Gel mobility shift (gel retardation) assay: calreticulin (p60) inhibition of AR-ARE binding and its reversal by peptides/antibody; conditions: for Effectiveness of binding to calreticulin, in words: effect of substitution in KXFFX1R sequence, band shift; for Reversal of p60 (calreticulin) inhibition of AR-ARE binding: peptide, antibody or IgG pre-incubated with p60; for Reversal of GST-calreticulin (recombinant calreticulin) inhibition of AR-ARE interaction: calreticulin 2 μg, peptides at 50-fold molar excess
Method: To determine whether p60 (calreticulin) could directly modulate the binding of nuclear hormone receptors to DNA via the KXFFX^1R [SEQ ID NO:1] sequence, the interaction of the DNA binding domain of recombinant androgen receptor with its hormone responsive element was analyzed by carrying out gel mobility shift assays.
(§1) As described in Rennie et al., 1993, DNA binding domain of recombinant rat androgen receptor was prepared as a GST-fusion protein using the pGEX-3X vector and purified by glutathione-agarose affinity chromatography. p60 (calreticulin) was purified by affinity chromatography on KLGFFKR-sepharose [SEQ ID NO:7], followed by gel electrophoresis as described in detail in Rojiani et al., 1991. […] Recombinant calreticulin (GST-fusion protein) was prepared as described by Baksh and Michalak, 1991. Gel retardation assays were carried out as described by Rennie et al., 1993. To analyze the effect of p60, or recombinant calreticulin, on receptor-DNA binding activity, the AR was pre-incubated with p60 for 30 min at 4° C. To analyze the effects of synthetic peptides, anti-calreticulin antibody, and non-immune IgG on p60 inhibition of AR-ARE binding, the peptide, antibody or IgG were pre-incubated with p60 for 30 min at 4° C. The androgen receptor preparation was then added to these mixtures and further incubated for 30 min at 4° C.
Affinity purified DNA binding domain of the recombinant rat androgen receptor (AR) was pre-incubated with or without the indicated concentrations of purified p60 at 4° C. for 30 min. After this pre-incubation the reaction mixtures were incubated with ^32P-labeled 26 base pair ARE (Rennie et al., 1993) (androgen response element), and analyzed by gel retardation assay. The sequence of the ARE used was [SEQ ID NO:28]:
Amino acids in the KXFFX^1R [SEQ ID NO: 1] sequence were modified. Androgen receptor and calreticulin were incubated in the presence of the modified peptides and allowed to interact with an oligonucleotide containing the androgen response element (the method of this assay is described in Example 3). The interaction was analyzed by gel mobility shaft assay (FIGS. 5A-5C).

[2] = tested on: retinoic acid receptor mediated gene transcription (bRARE luciferase) in P19 cells; test: RARE-driven luciferase reporter in P19 cells after peptide preincubation; assay type: cell-based, mouse; conditions: for Luciferase × 10^6: P19 cells, 10^-7 retinoic acid
Method: In order to test whether a peptide based on the calreticulin-binding KXGFFKR [SEQ ID NO:30] sequence modulates retinoic acid induced gene transcription in live cells, the p19 cells were transfected with a reporter vector consisting of a retinoic acid response element fused to the luciferase gene.
Cell culture conditions: Mouse embryonic carcinoma (P19) cell, grown in 60 mm dishes in 7.5% donor calf serum, 2.5% fetal calf serum alpha MEM (Gibco/BRL) were treated with the peptides KLGFFKR [SEQ ID NO:7] or KLRFGFK [SEQ ID NO:29] for three hours or overnight for 20 hours at 37° C., 5% CO2. With few exceptions, KLXFFKR [SEQ ID NO:31] is the peptide sequence specific within the binding domain of all steroid receptors. KLRFGFK [SEQ ID NO:29] is the scrambled peptide of the above sequence. Subsequently each plate was washed four times with serum free alpha MEM to remove excess peptides and replenished with fresh serum containing media. Cells were then transfected by standard calcium phosphate precipitation method (Current Protocols in Molecular Biology 9:1) with 1 microgram bRARE in pTKluc, 1.5 microgram pRSV bgal, 3 microgram pKS (carrier) per 60 mm dish. Following a 16 hour incubation at 37° C. 5% CO2, each plate was washed two times with serum free alphaMEM and replenished with serum containing media supplement with […] retinoic acid (Sigma R2625) and 800 microgram/ml G418 (Gibco 1181-031). Following another 24 hours incubation cells were washed three times with PBS and each 60 mm dish of cells was lysed in 100 microliters of 1 % triton X100, 100 mM KPO4 pH7.8, 1 mM DTT. Cell lysates were stored at −70° C. Prior to luciferase/bgal assays, cell debris were spun out on an Eppendorf microfuge (5415C) at 4° C. full speed for 20 minutes.
Luciferase assay: All reagents were equilibrated to room temperature and each sample was assayed independently. Ten microliters of cell lysate was incubated with 50 microliters of luciferase reagent (Promega E1483) in an Eppendorf tube. Thirty seconds later, the sample was immediately counted in a Beckman scintillation counter (LS6000IC) for one minute using an open window. Standards in the range of 0.001 nanogram to 1.0 nanogram was used to establish the linearity of the assay.
Beta-gal assay: Assay was done in a microtitre plate (Linbro 76-232-05). Ten microliters of cell lysate were mixed with 90 microliters of bgal reagent in 88 mM phosphate buffer, 11 mM KCl, 1 mM MgCl2, 55 mM 2ME, 4.4 mM chlorophenol red b-D-galactopyranoside (BMC 884-308). Incubation period varied from 30 minutes to 2 hours at 37° C. Results were read at 570 nm in an ELISA reader (Dynatech MR5000).

[3] = target: T2, calreticulin as used in the gel …; test: gel mobility shift; reversal of calreticulin inhibition of receptor-DNA binding; competitor VDR/RXR, reference RAR/RXR
Method: (§2) Example 7 Peptides Having Differential Specificities for Disrupting Different Hormone Receptor-Calreticulin Interactions To identify peptides having different specificities, we utilized gel mobility shift assays (see Example 3) in which known concentrations of purified recombinant androgen receptor, estrogen receptor, retinoic acid receptors (RAR/RXR and RXR/RXR) (Shago et al., 1994) and vitamin D receptor (Xu et al., 1993) were incubated with known concentrations of either recombinant calreticulin, or calreticulin purified by affinity chromatography on a KLGFFKR affinity column [SEQ ID NO:7] (see Example 3) in the presence of the respective ^32P-labelled DNA response elements and known concentrations of synthetic peptides based on the KXFFX[1]R [SEQ ID NO:1] sequence. In addition to the linear peptides, some peptides were cyclized by adding cysteine residues at either ends.

[4] = target: T2, calreticulin as used in the gel …; test: gel mobility shift; reversal of calreticulin inhibition of receptor-DNA binding; competitor RXR/RXR, reference RAR/RXR
Method: as §2

[5] = target: T2, calreticulin as used in the gel …; test: gel mobility shift, PhosphorImager; reversal of calreticulin inhibition of RAR/RXR binding to its DNA response element; competitor RAR/RXR
Source text: (§3) This Table relates to the retinoic acid receptors (RAR/RXR) and the androgen receptor (AR). […] The data was quantified using a Phosphormager (Molecular Dynamics).

[6] = target: T2, calreticulin as used in the gel …; test: gel mobility shift, PhosphorImager; reversal of calreticulin inhibition of AR binding to its DNA response element; competitor AR
Method: as §1, with “To analyze the effects of synthetic peptides, anti-calreticulin antibody, and non-immune IgG on p60 inhibition of AR-ARE binding, the peptide, antibody or IgG were pre-incubated with p60 for 30 min at 4° C.” left out
as §3

[7] = overnight preincubation with 10 micromolar peptide
[8] = overnight preincubation with 50 micromolar peptide
[9] = overnight preincubation with 100 micromolar peptide

Molecule	Effectiveness of binding to calreticulin, in words [1]	% Reversal [5]	% Reversal [6]	other results
KGRFKR [compound 414]	increased the effectiveness of binding to calreticulin	–	–	–
KGFRKR [compound 415]	increased the effectiveness of binding to calreticulin	–	–	–
KGFRRR [compound 421]	increased the effectiveness of binding to calreticulin	–	–	–
KVFAKR [compound 429]	decreased the ability of peptides to bind calreticulin	–	–	–
KGFFGR [compound 416]	decreased the ability of peptides to bind calreticulin	–	–	–
KLRFGFK [reference compound]	–	–	–	Corrected values luc/bgal [2, 7]: 42.04; Luciferase × 10^6 [2, 7]: 14 × 10^6; Corrected values luc/bgal [2, 8]: 41.34; Luciferase × 10^6 [2, 8]: 16 × 10^6; Corrected values luc/bgal [2, 9]: 32.26; Luciferase × 10^6 [2, 9]: 14 × 10^6; Reversal of p60 (calreticulin) inhibition of AR-ARE binding [1]: much less effective
KVFFKR [compound 285]	–	–	–	Reversal of GST-calreticulin (recombinant calreticulin) inhibition of AR-ARE interaction [1]: can also reverse the inhibition; also recorded: reversed; Reversal of p60 (calreticulin) inhibition of AR-ARE binding [1]: reversed
KLGFFKR	–	–	–	Corrected values luc/bgal [2, 7]: 32.91; Luciferase × 10^6 [2, 7]: 13 × 10^6; Corrected values luc/bgal [2, 8]: 45.15; Luciferase × 10^6 [2, 8]: 20 × 10^6; Luciferase × 10^6 [2, 9]: 28 × 10^6; Luciferase activity (retinoic acid receptor mediated gene transcription), in words ([2]; pre-incubation of P19 cells with peptide): dose-dependent increase in luciferase activity; Reversal of GST-calreticulin (recombinant calreticulin) inhibition of AR-ARE interaction [1]: Reversal of this inhibition; Reversal of p60 (calreticulin) inhibition of AR-ARE binding [1]: reversed; Effect by itself on the receptor-DNA interaction ([1]; without p60, data not shown): neither KLGFFKR peptide [SEQ ID NO:7], anti-calreticulin antibody, nor non-immune IgG by themselves had any effect
KVFFKA [compound 430]	decreased the ability of peptides to bind calreticulin	–	–	–
bovine serum albumin: other protein of similar size, used as control [reference compound]	–	–	–	Effect of protein on AR-ARE (receptor-DNA) complex formation ([1]; protein pre-incubated with AR 30 min at 4° C.): did not have any effect on the nuclear receptor-DNA interaction
KGFFKG [compound 417]	decreased the ability of peptides to bind calreticulin	–	–	–
KGRFRR [compound 420]	increased the effectiveness of binding to calreticulin	–	–	–
KVAFKR (not fully specified) [compound 427]	decreased the ability of peptides to bind calreticulin	–	–	–
KLGFFKR (Used free in solution and immobilised on sepharose; also called KLGFFKR-sepharose) [KLGFFKR synthetic peptide]	–	100%	62%	fold potency against VDR/RXR compared to RAR/RXR [3]: 10 fold; fold potency against RXR/RXR compared to RAR/RXR [4]: 4 fold
KLGFFGR [KLGFFGR peptide]	–	65%	85%	–
GLGFFKR [GLGFFKR peptide]	–	45%	100%	–
KLDFFKR [KLDFFKR peptide]	–	73%	0%	–
KLGRFKR [KLGRFKR peptide]	–	24%	10%	–
KLGFRKR [KLGFRKR peptide]	–	20%	6%	–
KLGFFKG [KLGFFKG peptide]	–	22%	63%	–
KLRFGFK (Control) [KLRFGFK scrambled peptide]	–	34%	–	–
KGFFKR (also called 409) [KGFFKR peptide]	–	100%	–	–
KVFFKR (also called 285; androgen receptor derived peptide) [KVFFKR peptide]	–	–	100%	–
